The values that follow come from the RNAGym collection of RNA variant scans (doi:10.7554/elife.80360).

B1: HDV Ribozyme (parent)
chain: GGCCGGCAUGGUCCCAGCCUCCUCGCUGGCGCCGGCUGGGCAACAUUCCGAGGGGACCGUCCCCUCGGUAAUGGCGAAUGGGACCCA

The variants in this data set derive from B1. Put plainly: self-cleavage, relative activity (ratio to wild type); higher = more cleavage; co-transcriptional.
As for G2C U69C, the self-cleavage was found to be 0.175. Consider G2A G25A, for which the self-cleavage was 0.0346. Regarding G2A G25U, the self-cleavage came out at 0.161. Consider G2A G25C, for which the self-cleavage is 0.0744. With G2C G74U, the self-cleavage was 0.1.

G2C G74A: the self-cleavage was found to be 0.113.

Regarding G2C G74C, the self-cleavage amounted to 0.0308.

With G2U G50U, the self-cleavage came out at 0. In the case of G2C G38C, the self-cleavage was 0.0475. G2C G38A: the self-cleavage was 0.0747. Next, G2C C85U: 0.0287; G2C C85A: 0.0287; G2C C85G: 0.0563.

Consider G2U G40C, for which the self-cleavage came out at 0.0455. As to G2U G40A, the self-cleavage turned out to be 0.0369. Next, G2U C48G: 0.0615; G2U C48U: 0.0563; G2A C26U: 0.138.

For G2A A77C, the self-cleavage worked out at 0.0437. In the case of G2A A77U, the self-cleavage amounted to 0.0631. With G2A A77G the figure was 0.141. For the variant G2A G5C, the self-cleavage was found to be 0.0419.

On to G2C C63A, for which the self-cleavage was 0.0213. Next, G2A G11C: 0.0519; G2U A51U: 0.0799. As for G2C C13A, the self-cleavage is 0.0707.

For the variant G2A G29C, the self-cleavage turned out to be 0.0292. With G2A G29U the figure was 0.0205; with G2U A16C, 0; with G2A G73C, 0.0608. For the variant G2C G81A, the self-cleavage was determined as 0.0511. Take G2C C66G: the self-cleavage is 0.0978.

Consider G2U G17U, for which the self-cleavage worked out at 0.0366. With G2U G17A the figure was 0; with G2A G31A, 0.0729. G2A G31U: the self-cleavage came out at 0.0205. For G2C U20A, the self-cleavage turned out to be 0.0361. Next, G2C A8C: 0.0639; G2C A8U: 0; G2C G34A: 0.0504. Next, G2C G34U: 0.0966; G2A C21A: 0.0158. On to G2A C21U, for which the self-cleavage was 0.0161. With G2U C64G, the self-cleavage turned out to be 0.0791. G2U G5C: the self-cleavage came out at 0. G2A G55C: the self-cleavage came to 0.194. As for G2A G55A, the self-cleavage was 0.191. With G2A G55U, the self-cleavage is 0.271. As for G2C C15U, the self-cleavage amounted to 0.0563. Next, G2A U47A: 0.0314; G2U C24G: 0.0225. Regarding G2U C24U, the self-cleavage worked out at 0.0784. G2C C33G: the self-cleavage was 0.0514. Next, G2C C33U: 0.0608. For G2C G73A, the self-cleavage was 0.0252. With G2C G73C the figure was 0.106.

Consider G2C C18G, for which the self-cleavage is 0.

As to G2U A70C, the self-cleavage turned out to be 0.0373.

For the variant G2U A70G, the self-cleavage came to 0.0715. For the variant G2U A70U, the self-cleavage came out at 0.0548.

Take G2C G80U: the self-cleavage was 0.0392. Consider G2C G80C, for which the self-cleavage stood at 0.154. Regarding G2C C86U, the self-cleavage came out at 0.0779.

Turning to G2C C86A, the self-cleavage stood at 0.128. With G2A A83G the figure was 0.122; with G2A A83C, 0.0583. On to G2C G67A, for which the self-cleavage turned out to be 0.0449. As for G2C C58A, the self-cleavage stood at 0. With G2C C58G, the self-cleavage stood at 0.13. With G2A C4U the figure was 0.163; with G2A A87C, 0.273. Consider G2A A87G, for which the self-cleavage was found to be 0.145.

On to G2A A87U, for which the self-cleavage is 0.237. With G2U C15G the figure was 0.0282; with G2U C15U, 0. Next, G2C G82U: 0; G2A U46G: 0.0817.

Consider G2A U46A, for which the self-cleavage was 0.0601.

Regarding G2U G34U, the self-cleavage was 0.0369. As for G2C G68A, the self-cleavage was 0.0504. For G2C G68U, the self-cleavage turned out to be 0.0449. For the variant G2C G68C, the self-cleavage stood at 0.0244. Consider G2U C21G, for which the self-cleavage turned out to be 0.0594. For G2U A83U, the self-cleavage is 0.0536. Turning to G2U A83C, the self-cleavage turned out to be 0.0594. Next, G2U A83G: 0.0815.

Regarding G2A G52U, the self-cleavage was 0.201. With G2A C15U the figure was 0.113; with G2A C15A, 0.0382.

G2C A87C: the self-cleavage was 0.0523. With G2C A87G the figure was 0.0671; with G2C A87U, 0.0825. G2U G6A: the self-cleavage is 0.0355. Next, G2U G6C: 0.106; G2C G50C: 0.0277; G2C G50A: 0.138. With G2U A77U the figure was 0.0244; with G2U A77G, 0; with G2C C19G, 0.102. For the variant G2C C19A, the self-cleavage was 0.106. With G2A C61G, the self-cleavage came out at 0.102.

Consider G2A C61A, for which the self-cleavage came to 0.351. Turning to G2A C61U, the self-cleavage is 0.149.

Regarding G2A U79A, the self-cleavage amounted to 0.0225. Next, G2A U79G: 0.089; G2A U79C: 0.0804. For G2C G11A, the self-cleavage turned out to be 0.0455. With G2C G29U the figure was 0.0494; with G2C G29A, 0.155.

On to G2A U12C, for which the self-cleavage is 0.0627. As for G2U C44G, the self-cleavage was determined as 0. In the case of G2C A71G, the self-cleavage came out at 0.021. With G2C C41G, the self-cleavage was 0.103. As to G2C C41A, the self-cleavage is 0. On to G2A G82C, for which the self-cleavage came to 0.0639. Turning to G2C A78G, the self-cleavage was found to be 0.0875. With G2C A78U the figure was 0.132; with G2C C30G, 0.0594; with G2C C30A, 0.0875. For G2A G6C, the self-cleavage is 0. G2A G6U: the self-cleavage was found to be 0.0683.

For G2A U65A, the self-cleavage amounted to 0.173. Regarding G2U A42U, the self-cleavage turned out to be 0.0647. On to G2A C13U, for which the self-cleavage was 0.058. As for G2U A87C, the self-cleavage turned out to be 0.0661. Turning to G2C C84A, the self-cleavage was determined as 0.0462. As for G2C C84G, the self-cleavage stood at 0.0639. As for G2A C41G, the self-cleavage is 0.0645. As to G2A C41U, the self-cleavage turned out to be 0.198.

On to G2U C57A, for which the self-cleavage was 0.156.

Turning to G2C A42U, the self-cleavage amounted to 0.0475. Next, G2A G68C: 0.177; G2A G68A: 0.185.

Consider G2A G68U, for which the self-cleavage amounted to 0.0645. In the case of G2U G31U, the self-cleavage was 0.0268.

G2U G31A: the self-cleavage came out at 0.0578. G2U C63A: the self-cleavage was found to be 0.101. Next, G2U C63G: 0.0528.

As for G2U C63U, the self-cleavage was found to be 0.0545. Take G2A G76C: the self-cleavage was determined as 0.225. Turning to G2A G76A, the self-cleavage amounted to 0.0391. Next, G2U C75G: 0.0256; G2C U65C: 0.14.

As to G2C U65A, the self-cleavage amounted to 0.

Consider G2U G59A, for which the self-cleavage turned out to be 0.128. As for G2C G54A, the self-cleavage amounted to 0.0777. With G2C G54U the figure was 0.0723; with G2A G50U, 0.0779; with G2A G50C, 0.205. On to G2C A16U, for which the self-cleavage came out at 0.0282.

As to G2C A16G, the self-cleavage came out at 0.131. Turning to G2C C61A, the self-cleavage was determined as 0.0391. Next, G2U G25A: 0.0391; G2U G25C: 0.0244; G2C U37C: 0.17. Next, G2C G28U: 0.014. For G2C A70G, the self-cleavage was 0.

With G2C A70U, the self-cleavage came out at 0.0601. With G2C U72A, the self-cleavage worked out at 0.106. Regarding G2C A51G, the self-cleavage was found to be 0.0831.

Consider G2U C4G, for which the self-cleavage was 0.0228.

With G2C C57A, the self-cleavage is 0.086.

As for G2U A71U, the self-cleavage is 0.0287.

Consider G2C C32U, for which the self-cleavage amounted to 0.101. With G2C C32A the figure was 0.0712; with G2C C32G, 0.0554. On to G2U C36G, for which the self-cleavage worked out at 0.185.
